# T1: EsCas13d, nuclease-dead (Eubacterium siraeum, UniProt B0MS50, R295A;H300A;R849A;H854A)
# T1 sequence: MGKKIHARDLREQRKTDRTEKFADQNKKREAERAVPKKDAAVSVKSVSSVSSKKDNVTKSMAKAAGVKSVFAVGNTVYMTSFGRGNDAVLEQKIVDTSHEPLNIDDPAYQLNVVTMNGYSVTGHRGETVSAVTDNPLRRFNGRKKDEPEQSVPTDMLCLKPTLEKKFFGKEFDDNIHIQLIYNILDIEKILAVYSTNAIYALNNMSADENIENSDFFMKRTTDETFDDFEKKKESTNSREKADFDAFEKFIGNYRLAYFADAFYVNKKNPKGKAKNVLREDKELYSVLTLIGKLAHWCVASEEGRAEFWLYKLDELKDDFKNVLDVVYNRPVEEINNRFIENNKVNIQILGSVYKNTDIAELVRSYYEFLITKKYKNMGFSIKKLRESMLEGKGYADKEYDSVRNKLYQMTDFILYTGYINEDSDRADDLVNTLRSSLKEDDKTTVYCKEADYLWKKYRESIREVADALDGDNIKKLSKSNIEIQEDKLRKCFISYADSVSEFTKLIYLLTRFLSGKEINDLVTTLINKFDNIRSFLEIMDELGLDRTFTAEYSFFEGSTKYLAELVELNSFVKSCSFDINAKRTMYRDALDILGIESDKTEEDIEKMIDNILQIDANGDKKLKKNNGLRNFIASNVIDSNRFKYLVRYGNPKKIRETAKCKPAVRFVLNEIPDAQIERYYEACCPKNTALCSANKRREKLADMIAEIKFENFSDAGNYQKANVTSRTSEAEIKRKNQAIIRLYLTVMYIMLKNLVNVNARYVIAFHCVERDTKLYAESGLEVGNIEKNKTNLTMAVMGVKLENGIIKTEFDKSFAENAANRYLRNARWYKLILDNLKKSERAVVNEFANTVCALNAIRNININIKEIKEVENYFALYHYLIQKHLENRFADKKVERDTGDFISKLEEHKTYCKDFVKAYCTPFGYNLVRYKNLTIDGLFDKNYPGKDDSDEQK
# B1: target 3 insC 3' of 11,insA 3' of 7 (mixed)
# RNA 1: CACCCGUGCAAAAUUGCAGGGGUCUAAAACGACCUGAAUAUUUCAGAUCAAA
# RNA 2: GGGAAUGGAUCCACAUCUACGAAUUCGUUUUUGAUCUGAAACUAUUACAGGUCUGCAGAUCGGAAGAGCACACGU
# B2: target 3 insA 3' of 22,insA 3' of 21 (mixed)
# RNA 1: CACCCGUGCAAAAUUGCAGGGGUCUAAAACGACCUGAAUAUUUCAGAUCAAA
# RNA 2: GGGAAUGGAUCCACAUCUACGAAUUCGUUUAUAUGAUCUGAAAUAUUCAGGUCUGCAGAUCGGAAGAGCACACGU
# B3: target 3 insG 3' of 9,insU 3' of 4 (mixed)
# RNA 1: CACCCGUGCAAAAUUGCAGGGGUCUAAAACGACCUGAAUAUUUCAGAUCAAA
# RNA 2: GGGAAUGGAUCCACAUCUACGAAUUCGUUUUUGAUCUGAAAUAGUUCAGUGUCUGCAGAUCGGAAGAGCACACGU
# B4: target 3 C6A,U8C (mixed)
# RNA 1: CACCCGUGCAAAAUUGCAGGGGUCUAAAACGACCUGAAUAUUUCAGAUCAAA
# RNA 2: GGGAAUGGAUCCACAUCUACGAAUUCGUUUUUGAUCUGAAAUACUAAGGUCUGCAGAUCGGAAGAGCACACGU
# B5: target 1 C2U,U10C (mixed)
# RNA 1: CACCCGUGCAAAAAUGCAGGGGUCUAAAACUGAGCGGAUAACCUCUCUAUGG
# RNA 2: GGGAAUGGAUCCACAUCUACGAAUUCGUACCAUAGAGAGGUCAUCCGCUUACCGAGAUCGGAAGAGCACACGU
# B6: target 3 insU 3' of 11,insU 3' of 5 (mixed)
# RNA 1: CACCCGUGCAAAAUUGCAGGGGUCUAAAACGACCUGAAUAUUUCAGAUCAAA
# RNA 2: GGGAAUGGAUCCACAUCUACGAAUUCGUUUUUGAUCUGAAAUUAUUCAUGGUCUGCAGAUCGGAAGAGCACACGU
# B7: target 3 U2G,A9C (mixed)
# RNA 1: CACCCGUGCAAAAUUGCAGGGGUCUAAAACGACCUGAAUAUUUCAGAUCAAA
# RNA 2: GGGAAUGGAUCCACAUCUACGAAUUCGUUUUUGAUCUGAAAUCUUCAGGGCUGCAGAUCGGAAGAGCACACGU
# B8: target 3 insC 3' of 5,insA 3' of 3 (mixed)
# RNA 1: CACCCGUGCAAAAUUGCAGGGGUCUAAAACGACCUGAAUAUUUCAGAUCAAA
# RNA 2: GGGAAUGGAUCCACAUCUACGAAUUCGUUUUUGAUCUGAAAUAUUCACGGAUCUGCAGAUCGGAAGAGCACACGU
# B9: target 3 insC 3' of 9,insA 3' of 8 (mixed)
# RNA 1: CACCCGUGCAAAAUUGCAGGGGUCUAAAACGACCUGAAUAUUUCAGAUCAAA
# RNA 2: GGGAAUGGAUCCACAUCUACGAAUUCGUUUUUGAUCUGAAAUACUAUCAGGUCUGCAGAUCGGAAGAGCACACGU
# B10: target 3 G3C,U7C (mixed)
# RNA 1: CACCCGUGCAAAAUUGCAGGGGUCUAAAACGACCUGAAUAUUUCAGAUCAAA
# RNA 2: GGGAAUGGAUCCACAUCUACGAAUUCGUUUUUGAUCUGAAAUAUCCAGCUCUGCAGAUCGGAAGAGCACACGU
# B11: target 3 insC 3' of 7,insG 3' of 7 (mixed)
# RNA 1: CACCCGUGCAAAAUUGCAGGGGUCUAAAACGACCUGAAUAUUUCAGAUCAAA
# RNA 2: GGGAAUGGAUCCACAUCUACGAAUUCGUUUUUGAUCUGAAAUAUUCGCAGGUCUGCAGAUCGGAAGAGCACACGU
# B12: target 3 U8C,A11C (mixed)
# RNA 1: CACCCGUGCAAAAUUGCAGGGGUCUAAAACGACCUGAAUAUUUCAGAUCAAA
# RNA 2: GGGAAUGGAUCCACAUCUACGAAUUCGUUUUUGAUCUGAACUACUCAGGUCUGCAGAUCGGAAGAGCACACGU
# B13: target 3 C1G,A5G (mixed)
# RNA 1: CACCCGUGCAAAAUUGCAGGGGUCUAAAACGACCUGAAUAUUUCAGAUCAAA
# RNA 2: GGGAAUGGAUCCACAUCUACGAAUUCGUUUUUGAUCUGAAAUAUUCGGGUGUGCAGAUCGGAAGAGCACACGU
# B14: target 3 insU 3' of 14,insC 3' of 3 (mixed)
# RNA 1: CACCCGUGCAAAAUUGCAGGGGUCUAAAACGACCUGAAUAUUUCAGAUCAAA
# RNA 2: GGGAAUGGAUCCACAUCUACGAAUUCGUUUUUGAUCUGUAAAUAUUCAGGCUCUGCAGAUCGGAAGAGCACACGU
# B15: target 3 complement block 4-8 (mixed)
# RNA 1: CACCCGUGCAAAAUUGCAGGGGUCUAAAACGACCUGAAUAUUUCAGAUCAAA
# RNA 2: GGGAAUGGAUCCACAUCUACGAAUUCGUUUUUGAUCUGAAAUAAAGUCGUCUGCAGAUCGGAAGAGCACACGU
# B16: target 1 insG 3' of 22,insU 3' of 20 (mixed)
# RNA 1: CACCCGUGCAAAAAUGCAGGGGUCUAAAACUGAGCGGAUAACCUCUCUAUGG
# RNA 2: GGGAAUGGAUCCACAUCUACGAAUUCGUACGCAUUAGAGAGGUUAUCCGCUCACCGAGAUCGGAAGAGCACACGU
# B17: target 3 A5G (mixed)
# RNA 1: CACCCGUGCAAAAUUGCAGGGGUCUAAAACGACCUGAAUAUUUCAGAUCAAA
# RNA 2: GGGAAUGGAUCCACAUCUACGAAUUCGUUUUUGAUCUGAAAUAUUCGGGUCUGCAGAUCGGAAGAGCACACGU
# B18: target 3 insC 3' of 9,insG 3' of 9 (mixed)
# RNA 1: CACCCGUGCAAAAUUGCAGGGGUCUAAAACGACCUGAAUAUUUCAGAUCAAA
# RNA 2: GGGAAUGGAUCCACAUCUACGAAUUCGUUUUUGAUCUGAAAUACGUUCAGGUCUGCAGAUCGGAAGAGCACACGU
# B19: target 3 C1G,A12U (mixed)
# RNA 1: CACCCGUGCAAAAUUGCAGGGGUCUAAAACGACCUGAAUAUUUCAGAUCAAA
# RNA 2: GGGAAUGGAUCCACAUCUACGAAUUCGUUUUUGAUCUGAUAUAUUCAGGUGUGCAGAUCGGAAGAGCACACGU
# B20: target 3 A12U (mixed)
# RNA 1: CACCCGUGCAAAAUUGCAGGGGUCUAAAACGACCUGAAUAUUUCAGAUCAAA
# RNA 2: GGGAAUGGAUCCACAUCUACGAAUUCGUUUUUGAUCUGAUAUAUUCAGGUCUGCAGAUCGGAAGAGCACACGU
# B21: target 3 G4C,A9G (mixed)
# RNA 1: CACCCGUGCAAAAUUGCAGGGGUCUAAAACGACCUGAAUAUUUCAGAUCAAA
# RNA 2: GGGAAUGGAUCCACAUCUACGAAUUCGUUUUUGAUCUGAAAUGUUCACGUCUGCAGAUCGGAAGAGCACACGU
# B22: target 3 U2G,A13G (mixed)
# RNA 1: CACCCGUGCAAAAUUGCAGGGGUCUAAAACGACCUGAAUAUUUCAGAUCAAA
# RNA 2: GGGAAUGGAUCCACAUCUACGAAUUCGUUUUUGAUCUGGAAUAUUCAGGGCUGCAGAUCGGAAGAGCACACGU
# B23: target 3 insC 3' of 8,insA 3' of 8 (mixed)
# RNA 1: CACCCGUGCAAAAUUGCAGGGGUCUAAAACGACCUGAAUAUUUCAGAUCAAA
# RNA 2: GGGAAUGGAUCCACAUCUACGAAUUCGUUUUUGAUCUGAAAUAUCAUCAGGUCUGCAGAUCGGAAGAGCACACGU
# B24: target 3 C1A,U7G (mixed)
# RNA 1: CACCCGUGCAAAAUUGCAGGGGUCUAAAACGACCUGAAUAUUUCAGAUCAAA
# RNA 2: GGGAAUGGAUCCACAUCUACGAAUUCGUUUUUGAUCUGAAAUAUGCAGGUAUGCAGAUCGGAAGAGCACACGU
# B25: target 3 insU 3' of 11,insC 3' of 5 (mixed)
# RNA 1: CACCCGUGCAAAAUUGCAGGGGUCUAAAACGACCUGAAUAUUUCAGAUCAAA
# RNA 2: GGGAAUGGAUCCACAUCUACGAAUUCGUUUUUGAUCUGAAAUUAUUCACGGUCUGCAGAUCGGAAGAGCACACGU
# B26: target 1 insA 3' of 22,insG 3' of 8 (mixed)
# RNA 1: CACCCGUGCAAAAAUGCAGGGGUCUAAAACUGAGCGGAUAACCUCUCUAUGG
# RNA 2: GGGAAUGGAUCCACAUCUACGAAUUCGUACACAUAGAGAGGUUAUGCCGCUCACCGAGAUCGGAAGAGCACACGU
# B27: target 3 insC 3' of 8,insC 3' of 5 (mixed)
# RNA 1: CACCCGUGCAAAAUUGCAGGGGUCUAAAACGACCUGAAUAUUUCAGAUCAAA
# RNA 2: GGGAAUGGAUCCACAUCUACGAAUUCGUUUUUGAUCUGAAAUAUCUCACGGUCUGCAGAUCGGAAGAGCACACGU
# B28: target 3 U2C,C6G (mixed)
# RNA 1: CACCCGUGCAAAAUUGCAGGGGUCUAAAACGACCUGAAUAUUUCAGAUCAAA
# RNA 2: GGGAAUGGAUCCACAUCUACGAAUUCGUUUUUGAUCUGAAAUAUUGAGGCCUGCAGAUCGGAAGAGCACACGU
# Molecular target: T1, EsCas13d, nuclease-dead
# Experiment: crRNA (strand 1, pre-loaded); Mg2+; 40 mM Tris-HCl pH 7.5, 150 mM NaCl, 6 mM MgCl2, 1 mM DTT, 0.1% Tween-20, 0.2 mg/ml BSA; 25 C; 10 min per concentration, then washed
# Details: tags: His6-TwinStrep-SUMO cleaved; N-terminal SNAP kept (SNAP-Surface 488); label: 3' end held by stalled T7 RNA polymerase
row,Binder,Kd
1,B1,65 ± 19 nM
2,B2,31.9 ± 4.5 nM
3,B3,74.5 ± 19 nM
4,B4,34.9 ± 3.6 nM
5,B5,20.8 ± 1.6 nM
6,B6,64 ± 13 nM
7,B7,106 ± 49.5 nM
8,B8,7.35 ± 0.5 nM
9,B9,43.9 ± 7.35 nM
10,B10,64 ± 12 nM
11,B11,16.8 ± 1.45 nM
12,B12,57 ± 14 nM
13,B13,55 ± 22 nM
14,B14,71 ± 28 nM
15,B15,51.5 ± 5.5 nM
16,B16,38 ± 5 nM
17,B17,20.9 ± 1.8 nM
18,B18,118 ± 50 nM
19,B19,63 ± 18 nM
20,B20,73.5 ± 19.5 nM
21,B21,43.5 ± 6.5 nM
22,B22,73.5 ± 29 nM
23,B23,76.5 ± 19 nM
24,B24,24.5 ± 6 nM
25,B25,81.5 ± 12.5 nM
26,B26,17.4 ± 1 nM
27,B27,74.5 ± 9.5 nM
28,B28,31.5 ± 4.5 nM

# — PMC10786891, “Massively parallel profiling of RNA-targeting CRISPR-Cas13d”
